Test results published in patent US20190000928A1.
Positions of bridges follow the written chain, without caps; N, C: chain ends. Non-standard residues stand in square brackets, D forms with d. No end group written: not given here. L5 = not defined here; L6 = not defined here

Columns and labels:
Assay in all cases: cell-based or functional assay
[1] = target: human glucagon-like peptide 2 receptor (GLP-2R) (human) (UniProt O95838)
[2] = target: human glucagon-like peptide 1 receptor (GLP-1R) (human) (UniProt P43220)
[3] = target: human glucagon receptor (GCGR) (human) (UniProt P47871)
Chain of human glucagon receptor (GCGR) (human) (P47871 26-477): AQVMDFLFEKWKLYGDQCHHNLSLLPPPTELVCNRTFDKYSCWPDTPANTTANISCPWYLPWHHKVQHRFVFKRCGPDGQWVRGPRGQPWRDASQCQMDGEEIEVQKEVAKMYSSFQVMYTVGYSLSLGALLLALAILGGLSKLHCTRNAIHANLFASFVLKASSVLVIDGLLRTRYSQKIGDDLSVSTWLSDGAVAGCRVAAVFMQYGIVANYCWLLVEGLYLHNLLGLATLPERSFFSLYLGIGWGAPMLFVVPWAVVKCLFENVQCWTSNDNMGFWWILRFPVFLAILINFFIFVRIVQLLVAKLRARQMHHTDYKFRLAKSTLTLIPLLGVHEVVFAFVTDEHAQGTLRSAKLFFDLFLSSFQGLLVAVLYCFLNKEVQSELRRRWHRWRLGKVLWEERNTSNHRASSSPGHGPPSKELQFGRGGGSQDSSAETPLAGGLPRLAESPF

Chain of human glucagon-like peptide 2 receptor (GLP-2R) (human) (O95838 whole entry): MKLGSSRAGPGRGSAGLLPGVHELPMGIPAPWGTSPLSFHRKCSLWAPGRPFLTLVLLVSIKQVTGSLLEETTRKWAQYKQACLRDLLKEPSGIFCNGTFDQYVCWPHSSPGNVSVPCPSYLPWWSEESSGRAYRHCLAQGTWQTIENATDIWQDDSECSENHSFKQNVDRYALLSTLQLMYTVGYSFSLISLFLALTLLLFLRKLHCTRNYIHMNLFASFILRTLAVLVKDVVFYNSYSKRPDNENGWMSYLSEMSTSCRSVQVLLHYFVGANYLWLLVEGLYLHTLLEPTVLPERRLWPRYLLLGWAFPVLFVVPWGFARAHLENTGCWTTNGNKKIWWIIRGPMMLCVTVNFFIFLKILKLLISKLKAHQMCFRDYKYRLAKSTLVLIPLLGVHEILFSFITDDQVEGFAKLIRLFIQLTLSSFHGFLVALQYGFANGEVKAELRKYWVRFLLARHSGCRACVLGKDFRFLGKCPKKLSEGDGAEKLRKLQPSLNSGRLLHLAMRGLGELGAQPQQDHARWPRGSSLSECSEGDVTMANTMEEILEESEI
Chain of human glucagon-like peptide 1 receptor (GLP-1R) (human) (P43220 24-463): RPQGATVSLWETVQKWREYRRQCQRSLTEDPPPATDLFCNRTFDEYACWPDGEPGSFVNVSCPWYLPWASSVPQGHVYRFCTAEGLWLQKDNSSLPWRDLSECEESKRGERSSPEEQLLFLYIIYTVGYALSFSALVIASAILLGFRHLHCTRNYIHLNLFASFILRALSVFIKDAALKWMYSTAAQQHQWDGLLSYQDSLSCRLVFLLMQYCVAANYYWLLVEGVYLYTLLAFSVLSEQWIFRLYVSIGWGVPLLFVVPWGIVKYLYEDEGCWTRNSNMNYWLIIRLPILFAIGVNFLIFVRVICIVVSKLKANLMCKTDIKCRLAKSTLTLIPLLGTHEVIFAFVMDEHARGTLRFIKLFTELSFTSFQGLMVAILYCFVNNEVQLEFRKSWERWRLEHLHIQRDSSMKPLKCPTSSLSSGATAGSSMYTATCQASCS

Row | Binder | GLP-2R (EC50, nM); CRE luciferase reporter in HEK293-GLP-2R-CRE cells [1] [nM] | GLP-1R (EC50, nM); CRE luciferase reporter in HEK293-GLP-1R-CRE cells [2] [nM] | GCGR (EC50, nM); CRE luciferase reporter in HEK293-GCGR-CRE cells [3] [nM]
1 | HGDGSFSDEMKTILDNLKARDFINWLIQTKITD (linker 11-18 via L6; reading uncertain; also: fatty acid attached to the staple, identity not given here) [mTA 7: GLP-2 (G) and L6] | 0.068 | – | –
2 | H[dS]QGTFTSDYSKYLDEKAAKEFIKWLLNGGPSSGAPPPS (linker 17-24 via L5; reading uncertain; also: fatty acid attached to the staple, identity not given here, printed as HsQGTFTSDYSKYLDEXAAKEFIXWLLNGGPSSGAPPPS) [mTA 6: GLP-1/Glucagon (D) and L5] | – | 0.03 | 0.62
